Substitutions are numbered along the chain they refer to.
B1: MS-116 (antibody)
VH: not shown
VL: DIVLTQSPHSLSVTPGEPASISCKSSHSLIHGDRNNYLAWYVQKPGRSPQLLIYLASSRASGVPDRFSGSGSGKDFTLKISRVEAEDVGTYYCMQGRESPWTFGQGTKVDIKRTVAAPSVFIFPPSDEQLKSGTASVVCLLNNFYPREAKVQWKVDNALQSGNSQESVTEQDSKDSTYSLSSTLTLSKADYEKHKVYACEVTHQGLSSPVTKSFNRGEC
B2: MS-100 (antibody)
VH: not shown
VL: B1 VL with I2F, A85T
B3: MS-96 (antibody)
VH: not shown
VL: B1 VL with P18S, G73D
B4: MS-105 (antibody)
VH: not shown
VL: B1 VL with H9L, P18S, G73D
B5: MS-118 (antibody)
VH: not shown
VL: B1 VL with H9L
B6: MS-104 (antibody)
VH: not shown
VL: B1 VL with H9L, P18S, A85T
B7: MS-98 (antibody)
VH: not shown
VL: B1 VL with I2F, H9L, P18S, A85T
B8: MS-117 (antibody)
VH: not shown
VL: B1 VL with I2F, H9L

What was measured:
Test in all cases: cell-based or functional assay
[1] = target: HIV-1 envelope glycoprotein of pseudovirus RHPA4259.7 (HIV-1)
[2] = target: HIV-1 envelope glycoprotein of pseudovirus BB1012-11.TC21 (HIV-1)
[3] = target: HIV-1 envelope glycoprotein of pseudovirus DU172.17 (HIV-1)
[4] = target: HIV-1 envelope glycoprotein of pseudovirus SC422661.8 (HIV-1)
[5] = target: HIV-1 envelope glycoprotein of pseudovirus CNE52 (HIV-1)
[6] = target: HIV-1 envelope glycoprotein of pseudovirus 0260.v5.c36 (HIV-1)

Row | Binder | IC50 (neutralization in TZM.bl cells) [1] | IC80 (neutralization in TZM.bl cells) [1] | IC50 (neutralization in TZM.bl cells) [2] | IC80 (neutralization in TZM.bl cells) [2] | IC50 (neutralization in TZM.bl cells) [3] | IC80 (neutralization in TZM.bl cells) [3] | IC50 (neutralization in TZM.bl cells) [4] | IC80 (neutralization in TZM.bl cells) [4] | IC50 (neutralization in TZM.bl cells) [5] | IC80 (neutralization in TZM.bl cells) [5] | IC50 (neutralization in TZM.bl cells) [6] | IC80 (neutralization in TZM.bl cells) [6]
1 | B1 | 0.187 µg/mL | 0.663 µg/mL | 0.03 µg/mL | 0.139 µg/mL | 1.97 µg/mL | 6.71 µg/mL | 0.185 µg/mL | 1.06 µg/mL | 0.321 µg/mL | 3.09 µg/mL | 0.024 µg/mL | 0.067 µg/mL
2 | B2 | 0.142 µg/mL | 0.694 µg/mL | 0.029 µg/mL | 0.095 µg/mL | 1.56 µg/mL | 5.25 µg/mL | 0.184 µg/mL | 1.31 µg/mL | 0.147 µg/mL | 2.02 µg/mL | 0.019 µg/mL | 0.053 µg/mL
3 | B3 | 0.252 µg/mL | 1.14 µg/mL | 0.047 µg/mL | 0.195 µg/mL | 3.58 µg/mL | 13 µg/mL | 0.397 µg/mL | 2.82 µg/mL | 0.543 µg/mL | 5.36 µg/mL | 0.026 µg/mL | 0.093 µg/mL
4 | B4 | 0.27 µg/mL | 1.25 µg/mL | 0.038 µg/mL | 0.124 µg/mL | 3.06 µg/mL | 11.5 µg/mL | 0.44 µg/mL | 3.51 µg/mL | 0.441 µg/mL | 5.04 µg/mL | 0.032 µg/mL | 0.11 µg/mL
5 | B5 | 0.164 µg/mL | 0.785 µg/mL | 0.036 µg/mL | 0.117 µg/mL | 2.12 µg/mL | 8.29 µg/mL | 0.244 µg/mL | 2.05 µg/mL | 0.42 µg/mL | 3.4 µg/mL | 0.019 µg/mL | 0.069 µg/mL
6 | B6 | 0.227 µg/mL | 1.02 µg/mL | 0.032 µg/mL | 0.137 µg/mL | 2.58 µg/mL | 9.41 µg/mL | 0.277 µg/mL | 1.52 µg/mL | 0.509 µg/mL | 6.48 µg/mL | 0.024 µg/mL | 0.084 µg/mL
7 | B7 | 0.146 µg/mL | 0.676 µg/mL | 0.025 µg/mL | 0.114 µg/mL | 1.44 µg/mL | 6.33 µg/mL | 0.301 µg/mL | 2.14 µg/mL | 0.237 µg/mL | 1.91 µg/mL | 0.019 µg/mL | 0.068 µg/mL
8 | B8 | 0.201 µg/mL | 0.715 µg/mL | 0.03 µg/mL | 0.099 µg/mL | 1.91 µg/mL | 6.49 µg/mL | 0.168 µg/mL | 1.33 µg/mL | 0.206 µg/mL | 1.73 µg/mL | 0.021 µg/mL | 0.057 µg/mL

Source: patent US20220025021A1 (BETH ISRAEL DEACONESS MEDICAL CENTER, published 2022)
